{
  "source": "patent US20030091990A1",
  "about": "“Methods and compositions involving thymidine phosphorylase as a marker for HIV infection, aids progression, and drug resistance” (priority 2001, published 2003)",
  "molecules": {"B1": {"name": "IL-16: IL-16 (10 ng/ml) incubated with resting CD4+ T lymphocytes (protein, UniProt Q14005 1212-1332, looked up)", "Interleukin-16": "SAASASAASDVSVESTAEATVCTVTLEKMSAGLGFSLEGGKGSLHGDKPLTINRIFKGAASEQSETVQPGDEILQLGGTAMQGLTRFEAWNIIKALPDGPVTIVIRRKSLQSKETTAAGDS"}},
  "tested_on": "resting CD4+ T lymphocytes",
  "assay": "Affymetrix GeneChip Expression Analysis of resting CD4+ T lymphocytes",
  "format": "cell-based",
  "details": "incubated 3 hrs at 37° C.; Human Genome U95A chips; fold changes from +2.0 to -2.0 removed; comparison with Mock control",
  "experimental": "To investigate the changes in RNA expression of resting CD4+ T lymphocytes by HIV-1, Affymetrix GeneChip® Expression Analysis was done. Purified resting CD4+ T lymphocytes (purity of >98%) prepared from a healthy donor by StemCell™ magnetic column technique were incubated with HIV-1213 ((M.O.I. 0.5-1), IL-16 (10 ng/ml), or MHC II peptide (50 μM, RK1) in a 37° C. humidified 5% CO2 incubator for 3 hrs). Then, total cytoplasmic RNA was extracted by using RNA isolation kit (Qiagen) according to the manufacturer's instructions. Isolated RNA was applied on the Human Genome U95A chips, containing 12,626 full-length genes (Affymetrix, Santa Clara, Calif.). Data were generated from hybridization intensities measured on GeneChip expression probe arrays and analyzed by GeneChip software provided by Affymetrix. In order to compare gene expression levels between two samples (Mock, HIV213, IL-16 and MHC II peptide), Comparison Analysis was performed on data from two separate probe array experiments by determining the relative changes in abundance for each transcript. All moderate increase, moderate decrease and no change were removed. All fold changes from +2.0 to −2.0 were also removed. […] TP (PDECGF) was one of the molecules that have shown great change in its mRNA level when CD4 T cells were signalled with HIV (48 fold change). […]",
  "data": [
    {"molecule": "B1", "values": [
      {"measurement": "genes changed vs. Mock", "result": 84, "unit": "genes"}
    ]}
  ]
}
